Several values for one entry are separate records, joined by “and”; a condition that tells them apart may be missing. Equal entries are not always repeated.
How the values were obtained:
[1] = system: Dnp-GPVNFRVC(Me)-NH2
[2] = system: biglycan
[3] = molecular target: type IV collagen (UniProt P08572)
[4] = system: Dab-SYPSGIHLC(Flu)LQR-NH2
[5] = system: Dabcyl-GPHPFRGC(Flu)-NH2
[6] = system: Dabcyl-GPLGMRGC(Fluorescein)-NH2
[7] = system: Dabcyl-GPVNLHGC(Flu)-NH2
[8] = system: Dnp-DEGPMGLKC(Me)YLG-NH2
[9] = system: Dnp-GPAPFRGC(Me)-NH2
[10] = system: Dnp-GPAPFRVC(Me)-NH2
[11] = system: Dnp-GPAPLHGC(Me)-NH2
[12] = system: Dnp-GPAPLHVC(Me)-NH2
[13] = system: Dnp-GPFGLKG-NH2
[14] = system: Dnp-GPHPFRG-NH2
[15] = system: Dnp-GPHPMRG-NH2
[16] = system: Dnp-GPINLHG-NH2
[17] = system: Dnp-GPKGITS-NH2
[18] = system: Dnp-GPKGMRG-NH2
[19] = system: Dnp-GPLGFRGC(Me)-NH2
[20] = system: Dnp-GPLGFRVC(Me)-NH2
[21] = system: Dnp-GPLGLHGC(Me)-NH2
[22] = system: Dnp-GPLGLHVC(Me)-NH2
[23] = system: Dnp-GPLGMRG-NH2
[24] = system: Dnp-GPLPFHVC(Me)-NH2
[25] = system: Dnp-GPLPFRGC(Me)-NH2
[26] = system: Dnp-GPLPFRVC(Me)-NH2
[27] = system: Dnp-GPLPLHGC(Me)-NH2
[28] = system: Dnp-GPLQFRG-NH2
[29] = system: Dnp-GPLQMRG-NH2
[30] = system: Dnp-GPLSFQG-NH2
[31] = system: Dnp-GPLSIQD-NH2
[32] = system: Dnp-GPLSISG-NH2
[33] = system: Dnp-GPMSYNG-NH2
[34] = system: Dnp-GPRPFRG-NH2
[35] = system: Dnp-GPSELKG-NH2
[36] = system: Dnp-GPSGIHL-NH2
[37] = system: Dnp-GPSGIHV-NH2
[38] = system: Dnp-GPSPFHVC(Me)-NH2
[39] = system: Dnp-GPSPFRGC(Me)-NH2
[40] = system: Dnp-GPSPLHGC(Me)-NH2
[41] = system: Dnp-GPVNLHG-NH2
[42] = system: Dnp-GPVNLHGC(Me)-NH2
[43] = system: Dnp-GPVNLHGRC(Me)-NH2
[44] = system: Dnp-GPYGMRA-NH2
[45] = system: Dnp-PHPFRG-NH2
[46] = system: Dnp-PINLHG-NH2
[47] = system: Dnp-PLGMRG-NH2
[48] = system: Dnp-PSGIHL-NH2
[49] = system: Dnp-VC(Me)PKGITSC(Me)VFR-NH2
[50] = system: Dnp-VTPYNMRG-NH2

Chain of gelatinase B (chain, as listed by the source): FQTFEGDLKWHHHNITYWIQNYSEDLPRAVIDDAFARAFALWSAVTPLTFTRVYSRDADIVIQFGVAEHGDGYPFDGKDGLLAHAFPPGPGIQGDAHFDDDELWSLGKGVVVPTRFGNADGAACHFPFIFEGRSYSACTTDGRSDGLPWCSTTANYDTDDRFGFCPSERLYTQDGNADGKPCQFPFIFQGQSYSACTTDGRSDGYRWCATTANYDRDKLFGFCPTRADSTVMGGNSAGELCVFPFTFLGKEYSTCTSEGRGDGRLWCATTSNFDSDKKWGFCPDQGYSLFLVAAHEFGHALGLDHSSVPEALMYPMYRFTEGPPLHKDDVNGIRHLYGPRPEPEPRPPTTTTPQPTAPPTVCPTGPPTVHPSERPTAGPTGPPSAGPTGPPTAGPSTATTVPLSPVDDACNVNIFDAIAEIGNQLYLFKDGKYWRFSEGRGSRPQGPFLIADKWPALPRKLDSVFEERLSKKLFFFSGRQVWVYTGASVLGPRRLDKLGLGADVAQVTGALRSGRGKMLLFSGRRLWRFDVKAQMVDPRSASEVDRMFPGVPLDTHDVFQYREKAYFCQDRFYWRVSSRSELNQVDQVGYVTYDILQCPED
Chain of type IV collagen (P08572 26-1712, chain 1 of 2): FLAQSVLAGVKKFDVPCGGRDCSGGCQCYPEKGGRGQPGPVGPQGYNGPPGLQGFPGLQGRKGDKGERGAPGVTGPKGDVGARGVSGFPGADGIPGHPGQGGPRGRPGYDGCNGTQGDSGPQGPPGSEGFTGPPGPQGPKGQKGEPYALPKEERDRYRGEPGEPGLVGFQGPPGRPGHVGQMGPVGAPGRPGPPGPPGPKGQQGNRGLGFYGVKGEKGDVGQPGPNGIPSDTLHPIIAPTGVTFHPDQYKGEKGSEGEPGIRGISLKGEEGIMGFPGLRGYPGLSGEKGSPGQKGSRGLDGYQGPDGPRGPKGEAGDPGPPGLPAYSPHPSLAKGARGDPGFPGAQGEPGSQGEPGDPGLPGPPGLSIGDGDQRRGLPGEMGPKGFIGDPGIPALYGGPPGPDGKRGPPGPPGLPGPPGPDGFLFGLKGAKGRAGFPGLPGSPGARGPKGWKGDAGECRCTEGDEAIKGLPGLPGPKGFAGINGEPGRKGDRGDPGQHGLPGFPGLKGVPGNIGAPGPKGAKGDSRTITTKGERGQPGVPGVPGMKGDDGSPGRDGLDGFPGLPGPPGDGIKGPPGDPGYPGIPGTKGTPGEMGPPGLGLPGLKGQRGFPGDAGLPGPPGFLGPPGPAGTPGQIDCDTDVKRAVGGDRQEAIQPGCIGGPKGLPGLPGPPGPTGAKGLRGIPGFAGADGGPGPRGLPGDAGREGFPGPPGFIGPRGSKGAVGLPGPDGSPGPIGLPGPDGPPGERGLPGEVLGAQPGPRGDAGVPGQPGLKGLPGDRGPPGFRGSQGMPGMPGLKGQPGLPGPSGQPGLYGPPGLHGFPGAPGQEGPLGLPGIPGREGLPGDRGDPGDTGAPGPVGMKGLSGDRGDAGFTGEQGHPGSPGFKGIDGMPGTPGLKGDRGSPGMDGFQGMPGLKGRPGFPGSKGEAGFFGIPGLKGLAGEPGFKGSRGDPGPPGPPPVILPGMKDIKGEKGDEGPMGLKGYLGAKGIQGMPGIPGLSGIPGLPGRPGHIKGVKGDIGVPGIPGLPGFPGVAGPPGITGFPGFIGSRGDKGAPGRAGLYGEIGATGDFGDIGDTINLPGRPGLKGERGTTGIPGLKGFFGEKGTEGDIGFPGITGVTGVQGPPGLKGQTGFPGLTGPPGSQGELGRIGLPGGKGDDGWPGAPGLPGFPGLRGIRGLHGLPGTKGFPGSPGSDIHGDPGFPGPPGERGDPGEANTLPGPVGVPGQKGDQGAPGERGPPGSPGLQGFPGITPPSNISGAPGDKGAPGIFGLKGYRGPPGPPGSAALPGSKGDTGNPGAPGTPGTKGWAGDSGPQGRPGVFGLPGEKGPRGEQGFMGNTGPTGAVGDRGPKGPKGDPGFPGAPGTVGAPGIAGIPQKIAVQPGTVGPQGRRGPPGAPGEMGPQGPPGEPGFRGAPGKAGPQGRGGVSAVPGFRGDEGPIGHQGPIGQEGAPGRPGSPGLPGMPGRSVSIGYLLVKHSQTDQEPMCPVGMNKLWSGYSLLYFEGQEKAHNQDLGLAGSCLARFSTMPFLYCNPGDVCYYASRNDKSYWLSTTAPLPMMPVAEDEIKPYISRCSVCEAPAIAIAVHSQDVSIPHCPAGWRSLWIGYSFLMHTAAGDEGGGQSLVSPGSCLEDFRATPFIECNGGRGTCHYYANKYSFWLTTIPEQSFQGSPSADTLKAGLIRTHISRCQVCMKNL
Chain of type IV collagen (chain, as listed by the source, chain 2 of 2): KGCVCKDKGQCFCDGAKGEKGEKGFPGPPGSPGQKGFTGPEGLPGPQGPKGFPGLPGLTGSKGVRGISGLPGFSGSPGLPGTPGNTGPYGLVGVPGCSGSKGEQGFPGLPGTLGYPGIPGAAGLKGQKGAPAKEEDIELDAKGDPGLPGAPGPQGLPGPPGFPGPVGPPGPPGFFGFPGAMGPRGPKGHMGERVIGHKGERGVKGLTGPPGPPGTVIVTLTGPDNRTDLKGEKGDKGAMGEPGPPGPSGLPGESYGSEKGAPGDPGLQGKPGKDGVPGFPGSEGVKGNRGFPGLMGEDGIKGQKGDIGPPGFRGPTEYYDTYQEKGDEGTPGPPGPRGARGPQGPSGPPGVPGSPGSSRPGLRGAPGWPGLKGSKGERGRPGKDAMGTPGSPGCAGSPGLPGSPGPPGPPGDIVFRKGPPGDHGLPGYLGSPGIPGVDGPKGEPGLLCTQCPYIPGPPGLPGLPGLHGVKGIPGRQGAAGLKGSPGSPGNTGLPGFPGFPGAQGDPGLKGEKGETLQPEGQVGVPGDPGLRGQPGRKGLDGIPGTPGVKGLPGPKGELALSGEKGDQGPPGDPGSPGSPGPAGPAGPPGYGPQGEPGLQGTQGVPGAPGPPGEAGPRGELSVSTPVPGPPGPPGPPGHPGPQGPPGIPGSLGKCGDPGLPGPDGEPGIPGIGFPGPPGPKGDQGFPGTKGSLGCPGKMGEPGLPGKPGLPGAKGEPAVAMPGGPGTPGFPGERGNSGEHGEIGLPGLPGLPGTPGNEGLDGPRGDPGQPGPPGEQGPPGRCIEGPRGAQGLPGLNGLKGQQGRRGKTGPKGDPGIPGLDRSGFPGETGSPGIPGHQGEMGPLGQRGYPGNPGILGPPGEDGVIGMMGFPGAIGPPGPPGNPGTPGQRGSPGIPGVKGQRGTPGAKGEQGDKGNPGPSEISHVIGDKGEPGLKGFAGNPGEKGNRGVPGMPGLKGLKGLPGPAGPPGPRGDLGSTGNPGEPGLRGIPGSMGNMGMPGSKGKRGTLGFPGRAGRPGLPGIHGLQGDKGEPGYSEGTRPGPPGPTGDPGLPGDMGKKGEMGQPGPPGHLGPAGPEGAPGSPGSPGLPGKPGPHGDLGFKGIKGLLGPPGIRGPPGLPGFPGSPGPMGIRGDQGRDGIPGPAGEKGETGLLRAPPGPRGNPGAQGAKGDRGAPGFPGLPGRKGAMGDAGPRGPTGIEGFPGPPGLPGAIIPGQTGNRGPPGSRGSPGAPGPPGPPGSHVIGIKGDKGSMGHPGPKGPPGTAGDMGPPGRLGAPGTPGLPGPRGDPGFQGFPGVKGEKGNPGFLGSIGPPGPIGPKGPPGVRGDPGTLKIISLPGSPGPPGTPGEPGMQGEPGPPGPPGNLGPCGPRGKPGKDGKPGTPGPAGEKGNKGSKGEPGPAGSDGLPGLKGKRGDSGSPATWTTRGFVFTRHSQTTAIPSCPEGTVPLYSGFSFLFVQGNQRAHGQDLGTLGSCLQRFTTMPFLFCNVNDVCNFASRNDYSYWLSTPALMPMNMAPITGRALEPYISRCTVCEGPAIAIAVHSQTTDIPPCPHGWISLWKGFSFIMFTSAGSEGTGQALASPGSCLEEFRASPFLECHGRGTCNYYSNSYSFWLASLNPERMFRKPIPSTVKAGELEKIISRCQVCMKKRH

gelatinase B
Selectivity v. Coll-3, substrate 5 uM [1]: 217 unitless
cleavage seen on a gel [2]: stromelysin 1 and gelatinase B being able to degrade this proteoglycan
cleavage seen on a gel [3]: Both collagenase 1 and gelatinase B processed type IV collagen under the conditions used in our experiments

human Collagenase-3
sensitivity for collagenase 3 against the consensus substrate FlSb1 [4]: 100-fold less sensitive for collagenase 3 compared to the consensus substrate
Specificity Constant [5]: 32700 1/sM
Specificity Constant, + Gel [5]: 26900 1/sM
Specificity Constant [6]: 4.4e+06 1/sM and 1.62e+06 1/sM
Specificity Constant, + Gel [6]: 1.74e+06 1/sM
Specificity Constant [7]: 421000 1/sM
Specificity Constant, 0.85 to 2.10 Hours, + 1.6 ug/ml TIICol [7]: 1.54e+06 1/sM
Specificity Constant, 0.85 to 2.10 Hours, + 4.9 ug/ml TIICol [7]: 1.88e+06 1/sM
Specificity Constant, 0.85 to 2.10 Hours, + 15 ug/ml TIICol [7]: 2.25e+06 1/sM
Specificity Constant, 0.85 to 2.10 Hours, + 44 ug/ml TIICol [7]: 2.55e+06 1/sM
Specificity Constant, 0.85 to 2.10 Hours, + .18 ug/ml TIICol [7]: 1.33e+06 1/sM
Specificity Constant, 0.85 to 2.10 Hours, + .55 ug/ml TIICol [7]: 1.47e+06 1/sM
Specificity Constant, 0.85 to 2.10 Hours, no TIICol [7]: 1.11e+06 1/sM
Specificity Constant, + Gel [7]: 471000 1/sM
Specificity Constant (kcat/Km) [8]: 528000 1/sM
Specificity Constant (kcat/Km) [9]: 1.14e+06 1/sM
Specificity Constant (kcat/Km) [10]: 1.76e+06 1/sM
Specificity Constant (kcat/Km) [11]: 1.69e+06 1/sM
Specificity Constant (kcat/Km) [12]: 677000 1/sM
Specificity Constant (kcat/Km) [13]: 1.28e+06 1/sM
Specificity Constant (kcat/Km) [14]: 900000 1/sM
Specificity Constant (kcat/Km) [15]: 2.33e+06 1/sM
Specificity Constant (kcat/Km) [16]: 700000 1/sM
Specificity Constant (kcat/Km) [17]: 734000 1/sM
Specificity Constant (kcat/Km) [18]: 2.32e+06 1/sM
Specificity Constant (kcat/Km) [19]: 2.4e+06 1/sM
Specificity Constant (kcat/Km) [20]: 3.92e+06 1/sM
Specificity Constant (kcat/Km) [21]: 3.73e+06 1/sM
Specificity Constant (kcat/Km) [22]: 4.46e+06 1/sM
Specificity Constant (kcat/Km), + 1:1 Gelatin [23]: 340000 1/sM
Specificity Constant (kcat/Km), + 1:4 Gelatin [23]: 562000 1/sM
Specificity Constant (kcat/Km), + 1:16 Gelatin [23]: 1.93e+06 1/sM
Specificity Constant (kcat/Km), + 1:64 Gelatin [23]: 2.67e+06 1/sM
Specificity Constant (kcat/Km), + 1:256 Gelatin [23]: 4.65e+06 1/sM
Specificity Constant (kcat/Km), + H2O [23]: 3.16e+06 1/sM
Specificity Constant (kcat/Km) [24]: 598000 1/sM
Specificity Constant (kcat/Km) [25]: 973000 1/sM
Specificity Constant (kcat/Km) [26]: 1.29e+06 1/sM
Specificity Constant (kcat/Km) [27]: 1.1e+06 1/sM
Specificity Constant (kcat/Km) [28]: 705000 1/sM
Specificity Constant (kcat/Km) [29]: 885000 1/sM
Specificity Constant (kcat/Km) [30]: 454000 1/sM
Specificity Constant (kcat/Km) [31]: 868000 1/sM
Specificity Constant (kcat/Km) [32]: 191000 1/sM
Specificity Constant (kcat/Km) [33]: 887000 1/sM
Specificity Constant (kcat/Km) [34]: 634000 1/sM
Specificity Constant (kcat/Km) [35]: 862000 1/sM
Specificity Constant (kcat/Km) [36]: 284000 1/sM
Specificity Constant (kcat/Km) [37]: 1.41e+06 1/sM
Specificity Constant (kcat/Km) [38]: 338000 1/sM
Specificity Constant (kcat/Km) [39]: 1.3e+06 1/sM
Specificity Constant (kcat/Km) [40]: 1.76e+06 1/sM
Specificity Constant (kcat/Km), substrate 5 uM [1]: 2.57e+06 1/sM
Specificity Constant (kcat/Km) [41]: 1.15e+06 1/sM
Specificity Constant (kcat/Km) [42]: 813000 1/sM
Specificity Constant (kcat/Km) [43]: 1.04e+06 1/sM
Specificity Constant (kcat/Km) [44]: 5.66e+06 1/sM
Specificity Constant (kcat/Km) [45]: 230000 1/sM
Specificity Constant (kcat/Km) [46]: 377000 1/sM
Specificity Constant (kcat/Km) [47]: 980000 1/sM
Specificity Constant (kcat/Km) [48]: 91700 1/sM
Specificity Constant (kcat/Km) [49]: 1.54e+06 1/sM
Specificity Constant (kcat/Km) [50]: 2.69e+06 1/sM
cleavage seen on a gel [2]: Cleavage of biglycan generated peptide fragments of 28, 17, 8, and 6 kDa
cleavage seen on a gel [3]: type IV collagen digestion gave 3-4 detectable cleavage products (85 kDa, 80 kDa, 35 kDa and 28 kDa

stromelysin 1
Selectivity v. Coll-3, substrate 5 uM [1]: 400 unitless
cleavage seen on a gel [2]: stromelysin 1 and gelatinase B being able to degrade this proteoglycan

— patent publication US20030229005
